Data on 1 molecule can be found in US7341730B1, “Inhibitors of angiogenesis and tumor growth” (University of Southern California, priority 1998, dated 2008).

Entries after “also recorded” stand apart in the source; their conditions may differ.

The subject of assay [1] is KS cell lines. The assay can be described thus: KS cell migration in transwell plates. It is filed as cell-based. To be noted: chemotaxis induced by VEGF or bFGF. As to the method:
The assays were done in double chamber wells separated by fibrinogen-coated membrane. Chemotaxis was induced by bFGF (25 ng/mL) in the lower chamber. Endothelial cells or KS cells (5×10^4/mL) were placed in the upper chamber in the presence and absence of test polypeptides. Taxol at 10 ng/mL was used as a known inhibitor of migration. Cell migration across the membrane was quantitated after an overnight incubation.
Angiogenesis is mediated by complex biochemical processes including degradation of the basement membrane under existing blood vessel endothelial cells, followed by proliferation and migration of endothelial cells, followed by formation of capillary loops, and recruitment of vascular smooth muscle cells to encase the newly formed vessels and provide stability. KS and endothelial cell migration in the presence of Saposin B was studied in transwell culture plates with 8 μm pore membranes (Costar, Cambridge, Mass.).
Briefly, wells were coated with fibronectin (25 μg/mL) overnight, and endothelial cells or KS cells were plated in the upper chamber with 100 μL of DMEM/0.4% FCS. 500 μL of DMEM/0.4% FCS was added to the lower chamber and incubated at 37° C. for one hour. The test polypeptides, at various concentrations, were added to the upper chamber, and chemotactic agents (VEGF or bFGF at 20 ng/mL) were added to the lower cell-culture chambers. The plates were incubated for 5 hr at 37° C. and the cells crossing the fibronectin-coated membrane were counted after wiping the cells off the membrane in the upper chamber with a cotton swab.
The cells that traversed the membrane were fixed with Diff-Quik stain according to the manufacturer's instruction (Dade Diagnostics Inc., Aguada, PR). The cells were counted under a microscope at 320× in four randomly selected fields. The experiments were done in duplicate and repeated at least three times.

The test system of assay [2] is KS cell lines. The assay can be described thus: Growth inhibition of KS cell lines by recombinant proteins. It is filed as cell-based. To be noted: recombinant or naturally occurring protein. As to the method: (§1) Typically, in an anti-proliferation assay, the suppression of growth in the presence of the compound to be tested is measured. For example, the above cells are incubated with the polypeptides of this invention for a suitable time and the decrease in the growth rate relative to a negative control, i.e., cells of the same cell line which have been incubated in media alone, is measured. Growth of the cell culture can be measured by any method acceptable to one of skill, including but not limited to, 3H-thymidine uptake, cell counting and tetrazolium dye uptake.
(§2) By SDS-PAGE, the bacterial product was smaller than the eukaryotic protein. Because prokaryotically expressed proteins are not glycosylated, the difference in molecular weights probably represents the presence of carbohydrate in the eukaryotic protein. Recombinant proteins were then tested in KS, endothelial and control cell lines. Activity was found only in KS cell lines and endothelial cells.

In assay [3] the test system is endothelial cells (HUVEC). The assay is described as follows: Growth inhibition of endothelial cells. It is filed as cell-based. As to the method:
as §1, §2

In assay [4] the test system is angiogenesis induced by VEGF or bFGF in chicken allantoic membrane (CAM). The assay is described as follows: Chicken allantoic membrane (CAM) angiogenesis assay. It is filed as in vivo. The following applies: 48 hours. The protocol:
In order to test anti-angiogenic activity, chicken allantoic membrane (CAM) assays were performed with recombinant Saposin B. Ten day old fertilized chicken eggs were prepared for assay by creating a window in the egg shell, and placing filter paper discs saturated with VEGF or bFGF as positive controls, test compounds, or carrier buffer (negative controls) on the allantoic membrane. The membranes were harvested after 48 hours and analyzed using an Olympus stereomicroscope. The number of branching blood vessels that infiltrated under the discs were counted and photographed. Eight CAMs were studied for test group, and the experiments were repeated at least twice.

Assay [5] deals with CD34+/Flk-1+ cells from cord blood. The assay can be described thus: Growth of CD34+/Flk-1+ progenitors on fibronectin coated dishes. To be noted: 50 ng/mL. The format is cell-based, human. The source says: A bone marrow derived human CD34+/Flk-1+ progenitor cell can be mobilized into the blood stream in response to tumor induced signals such as VEGF and cytokine production. These cells can target to sites of angiogenesis where they mature into activated endothelial cells and thus contribute to the generation of new blood vessels at the tumor site. By blocking the production of these cells or by targeting these cells (i.e., the CD34+/Flk-1+ progenitors and the activated endothelial cell they can become), the angiogenesis/vasculogenesis required for tumor growth can be reduced or halted. […] The adherent cells take on a spindle-shaped morphology characteristic of the activated vascular endothelial cells typical of the angiogenic process. These cells express endothelial-specific markers including factor VIII, ulex europaeus agglutinin-1 (UEA-1), endothelial constitutive nitric oxide synthase (ecNOS), and E selectin. Further, when these cells (peripheral blood Flk+ progenitors) are infused into mice, they incorporate into newly formed blood vessels at site of injury. These observation identify CD34+/Flk-1+ bone marrow derived progenitors as a putative precursor to vascular endothelial cells. Preventing these cells from colonizing at distal sites of angiogenesis in tumors has enormous implication for the treatment of tumors. […]

Assay [6] concerns CD34+ cord blood derived cells. The assay is described as follows: Viability of CD34+ cord blood derived cells. The format is cell-based, human. The source says: However in the presence of Saposin B, CD34^+/Flk-1^+ progenitor growth was inhibited.
Saposin B was found not to be toxic to most CD34^+ cord blood derived cells, since the difference in viability of Saposin B treated CD34^+ cells was only around 20% when compared to control cells. Thus Saposin B not only targets fully differentiated and activated endothelial cells, but also a circulating progenitor, previously shown to target angiogenic sites.

Assay [7] has as its system Human bone marrow cells and peripheral blood mononuclear cells. The assay is described as follows: Stem cell clonogenic assays in methylcellulose. It is filed as cell-based. The following applies: VEGF 10 and 100 ng/mL. The protocol:
Human bone marrow cells and peripheral blood mononuclear cells were harvested from a subject after the administration of high doses of cyclophosphamide and G-CSF. Stem cell clonogenic assays in methylcellulose were performed with IL-3, erythropoietin, and VEGF (10 ng/mL, and 100 ng/mL). VEGF was used to determine if there are progenitor cells with self replication capacity but without adherence to extracellular matrix such as fibronectin. It was also desirable to determine if Saposin B was toxic to endothelial cell specific progenitors for hematopoietic (myeloid or erythroid) lineage cells.
These colonies contained mixture of cells indicating more than one cell lineage generated in response to VEGF. The colonies also contained spindle shaped cells which mark the presence of VEGF receptors.

The next assay concerns KS-SLK or KS Y-1 tumors. The assay can be described thus: KS tumor growth in nude mice. The format is in vivo. The protocol:
FIG. 6: Effect of pentapeptide DVCQD (SEQ ID NO:28) on the growth of established KS Y-1 tumors in mice. Mice were implanted with the tumor on day one. Treatment with the peptide was started on the following day at a dose of 50 mg/kg subcutaneously daily. […] The arrow marks initiation of daily subcutaneous dosing.
In order to determine the anti-angiogenic activity of the recombinant Saposin B, tumor cells were implanted in immuno-deficient mice and treated with either Saposin B or buffer alone.
Nude mice were injected with 2×10^6 KS-SLK or KS Y-1 cells subcutaneously in a total volume of 100 μL. After one week of tumor development, the mice were injected subcutaneously daily with either PBS or Saposin B at concentrations of 1, 10 and 20 mg/kg for a total protein concentration of […]. The tumor size was measured three times a week. The results represent the median of 4 mice in each group.
(§3) To determine whether this anti-tumor effect was reproducible with different classes of syngeneic-tumors, C57BL/6 mice were implanted with Lewis lung carcinoma, melanoma (B16), and T-cell lymphoma (EL-4) cell lines. KS Y-1 was implanted into nude mice for a positive control. The day following tumor implantation, 2.5 mg/kg of Saposin B was administered intraperitoneally. Tumor size was measured three times a week for two weeks at which time the mice were sacrificed for analysis. […] See, FIG. 4
In further experiments, KS tumors were allowed to grow for five days before treatment with Saposin B (1 and 5 mg/kg daily at a distal site from the timer tumor). In control mice, tumors grew to a weight of 555+mg. […] Tumors excised at the conclusion of the experiments were also examined for apoptosis, blood vessel density, and mitotic index. […] Thus, contrary to the results in vitro, Saposin B has an inhibitory effect against […] tumors.

For the next assay, the system named is Lewis lung carcinoma. The assay can be described thus: Syngeneic tumor growth in C57BL/6 mice, Lewis lung carcinoma. The format is in vivo. To be noted: 2.5 mg/kg from the day following implantation, two weeks. The protocol:
(§4) FIG. 4: Inhibition of tumor growth in mice. C57BL/6 mice were implanted with Lewis lung carcinoma, melanoma (B 16), and T-cell lymphoma (EL4). KS Y-1 was implanted in nude mice as a positive control. One day after implantation 2.5 mg/kg of Saposin B was injected into the mice subcutaneously.
as §3

The next assay deals with melanoma (B16). The assay can be described thus: Syngeneic tumor growth in C57BL/6 mice, melanoma (B16). The format is in vivo. The following applies: 2.5 mg/kg from the day following implantation, two weeks. As to the method: as §4, §3
The test system of the next assay is T-cell lymphoma (EL-4). The assay can be described thus: Syngeneic tumor growth in C57BL/6 mice, T-cell lymphoma (EL-4). The following applies: 2.5 mg/kg from the day following implantation, two weeks. It is filed as in vivo. As to the method:
as §4, §3

[8] abbreviates: KS tumors grown five days before treatment, 1 and 5 mg/kg daily.

B1: Saposin B: polypeptide fragment of Prosaposin, positions 190 to 269 (SEQ ID NO:2); tested as recombinant protein (protein, listed as Homo sapiens)
chain: GDVCQDCIQMVTDIQTAVRTNSTFVQALVEHVKEECDRLGPGMADICKNYISQYSEIAIQMMMHMQPKEICALVGFCDEVK
modifications: Saposin B
notes: tested as recombinant protein
As for B1, the “inhibition of KS cell migration” value in the assay on KS cell lines [1] is “compete inhibition of cell migration”. Also, the “growth inhibition / activity against KS cell lines” value in the assay on KS cell lines [2] is recorded as “dose dependent growth inhibition”. Also, the “growth inhibition / activity against endothelial cells” value in [3] is “dose dependent growth inhibition”. The “inhibition of angiogenesis (number of blood vessel branches) in CAMs” value in assay [4] was “effectively blocked angiogenesis; also recorded: inhibited by Saposin B in a dose-dependent fashion”. For the same molecule, in assay [5], the “CD34+/Flk-1+ progenitor growth” value is “inhibited”. In addition, the “difference in viability of treated CD34+ cells compared to control cells” value in assay [6] is “around 20%”. In [7], the “effect on colonies generated with VEGF” value was “loss of spindle shaped cells”. For the same molecule, the tumor growth entry is “profound inhibition of tumor growth” in the assay with KS-SLK or KS Y-1 tumors (KS Y-1 in nude mice, 2.5 mg/kg from the day following implantation, two weeks); “markedly retarded” with KS-SLK or KS Y-1 tumors (nude mice, KS-SLK or KS Y-1, subcutaneously daily after one week, 1, 10 and 20 mg/kg); “profound inhibition of tumor growth” in the assay on Lewis lung carcinoma; “profound inhibition of tumor growth” with melanoma (B16); “profound inhibition of tumor growth” in the assay with T-cell lymphoma (EL-4). In addition, in the assay on KS-SLK or KS Y-1 tumors (setting [8]), the “apoptosis in excised tumors” value is on record as “increase in apoptosis”. Besides, the “blood vessel density in excised tumors” value in the assay with KS-SLK or KS Y-1 tumors (setting [8]) is listed as “decrease in blood vessel density”. For the same molecule, the “weights of excised tumors relative to controls” value in the assay on KS-SLK or KS Y-1 tumors (setting [8]) was “approximately 23%”.
